Results: the supplement of paper PMC10126150
± gives the standard deviation of the averaged measurements.

Test system: ATP
Experiment: switch fluorescence ratio, 500 uM ATP over buffer (Cy3 cluster intensity, sum of 5 cycles each) (fold (ratio)); higher = stronger signal-on switching upon ATP binding; sequences stand for … in TCGTCGGCAGCGTCAGATGTGTATAAGAGACAGTTTTTTTTTTTTTTTTTTTTTTTTT…TC
Details: aptamer strand: ATP DNA aptamer (quencher-CACCTGGGGGAGTATTGCGGAGGAAGG + anchor), 100 nM annealed; ATP concentration: 500 uM
Summary of the method: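 Per cluster, summed Cy3 intensity from the target cycles was divided by that from the buffer cycles to give the fluorescence ratio, then averaged per switch-domain sequence. Clusters outside 100-1000 RFU were excluded. The Cy3-labelled switching-strand clusters, on a modified Illumina MiSeq flow-cell, were annealed to 100 nM quencher-labelled ATP aptamer and imaged in selection buffer, then after 15 min with 500 uM ATP at 22 °C, for five cycles with NaOH stripping and re-annealing between them.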
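Note: ATP exposure 15 min at 22 °C before imaging.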

Row | Sequence | switch fluorescence ratio
1 | AGGTTAAGCA | 1.02 ± 0.0034
2 | AGGTTAGGCT | 0.989 ± 0.014
3 | AGGTTCACCC | 1.07 ± 0.08
4 | AGGTTCGGAT | 0.985 ± 0.056
5 | AGGTTCTCTG | 0.9942 ± 0.0011
6 | AGGTTGAGCT | 0.9791 ± 0.0021
7 | AGGTTGAGG | 1.01 ± 0.021
8 | AGGTTGCGCG | 1.009 ± 0.0079
9 | AGGTTGGATT | 0.9706 ± 0.0039
10 | AGGTTGGCGT | 0.995 ± 0.029
11 | AGGTTGGGAA | 0.944 ± 0.07
12 | AGGTTGGGGG | 0.981 ± 0.013
13 | AGGTTGGTCG | 0.974 ± 0.064
14 | AGGTTGTGAC | 0.989 ± 0.029
15 | AGGTTGTTTG | 1.01 ± 0.031
16 | AGGTTTGGAT | 0.991 ± 0.078
17 | AGGTTTTCTC | 1.02 ± 0.052
18 | AGGTTTTTTA | 1.02 ± 0.022
19 | AGTAAAAAAA | 0.987 ± 0.033
20 | AGTAAAGCAG | 1 ± 0.055
21 | AGTAAAGTTC | 1.03 ± 0.028
22 | AGTAACAGTA | 1 ± 0.037
23 | AGTAACATTT | 0.974 ± 0.069

Row | Sequence | switch fluorescence ratio
24 | AGTAACTAGA | 1.01 ± 0.046
25 | AGTAAGAGTC | 1.01 ± 0.017
26 | AGTAAGATGT | 0.976 ± 0.034
27 | AGTAAGCGGC | 1.004 ± 0.0094
28 | AGTAATTTTA | 1.04 ± 0.04
29 | AGTACACGTG | 0.993 ± 0.026
30 | AGTACATAGT | 0.99 ± 0.024
31 | AGTACATGAT | 1.02 ± 0.025
32 | AGTACCGGGT | 1.04 ± 0.049
33 | AGTACGGGGG | 0.992 ± 0.021
34 | AGTAGAAATG | 0.991 ± 0.012
35 | AGTAGAATTG | 0.966 ± 0.054
36 | AGTAGAGATG | 1.03 ± 0.028
37 | AGTAGAGTTT | 0.987 ± 0.013
38 | AGTAGCAAGC | 3.3 ± 0.17
39 | AGTAGCAGCT | 1.03 ± 0.048
40 | AGTAGCGATT | 1.06 ± 0.031
41 | AGTAGGCGAG | 0.996 ± 0.042
42 | AGTAGGGGAA | 0.995 ± 0.035
43 | AGTAGGGTTG | 0.957 ± 0.011
44 | AGTAGGTAAA | 1.03 ± 0.023
45 | AGTAGGTAGG | 0.981 ± 0.03
46 | AGTAGGTAGT | 0.968 ± 0.019

Row | Sequence | switch fluorescence ratio
47 | AGTAGGTCGG | 0.987 ± 0.01
48 | AGTAGTAAGC | 1.03 ± 0.023
49 | AGTAGTAAGT | 1.01 ± 0.012
50 | AGTAGTTGGG | 0.967 ± 0.037
51 | AGTATAAAAA | 1.03 ± 0.062
52 | AGTATAGGGA | 1.011 ± 0.01
53 | AGTATCTGGG | 0.9886 ± 0.0094
54 | AGTATGGAGC | 0.9983 ± 0.004
55 | AGTATGGGGA | 0.989 ± 0.016
56 | AGTATGGGGG | 1.02 ± 0.015
57 | AGTATGGTGG | 0.998 ± 0.013
58 | AGTATGTGCT | 0.965 ± 0.024
59 | AGTATGTGTC | 1.01 ± 0.042
60 | AGTATTCTG | 0.961 ± 0.04
61 | AGTATTGGGT | 0.998 ± 0.035
62 | AGTATTTCGT | 0.987 ± 0.031
63 | AGTATTTTTA | 1.01 ± 0.012
64 | AGTATTTTTG | 1.01 ± 0.032
65 | AGTCCGATTT | 1.03 ± 0.061
66 | AGTCCTTAGC | 1 ± 0.071
67 | AGTCGGGGGC | 1.03 ± 0.04
68 | AGTCGGGGGT | 0.99 ± 0.024
69 | AGTCGGGTCT | 1.05 ± 0.083

Row | Sequence | switch fluorescence ratio
70 | AGTCGTTCAG | 0.949 ± 0.023
71 | AGTCTAGTGG | 0.985 ± 0.027
72 | AGTCTCTCAT | 0.992 ± 0.03
73 | AGTCTGCTGT | 0.984 ± 0.037
74 | AGTGACATCG | 1.14 ± 0.076
75 | AGTGAGAGGA | 0.9804 ± 0.007
76 | AGTGAGAT | 0.9943 ± 0.0097
77 | AGTGAGGGTA | 0.983 ± 0.031
78 | AGTGAGGTTG | 0.977 ± 0.049
79 | AGTGATGGGG | 0.987 ± 0.037
80 | AGTGCAGGCA | 1 ± 0.034
81 | AGTGCATTTT | 1.06 ± 0.097
82 | AGTGCCATTG | 0.9627 ± 0.0067
83 | AGTGCGGGTT | 1.02 ± 0.025
84 | AGTGGAAAC | 1.0032 ± 0.00099
85 | AGTGGAGGAC | 1.02 ± 0.012
86 | AGTGGCAAGG | 0.9943 ± 0.0063
87 | AGTGGCACGG | 1 ± 0.029
88 | AGTGGCTTTG | 0.986 ± 0.019
89 | AGTGGGAAAT | 0.994 ± 0.015
90 | AGTGGGAACA | 1.01 ± 0.017
91 | AGTGGGAATC | 0.989 ± 0.032
92 | AGTGGGAGGA | 0.996 ± 0.02

Row | Sequence | switch fluorescence ratio
93 | AGTGGGATGG | 1.03 ± 0.037
94 | AGTGGGATTT | 0.993 ± 0.039
95 | AGTGGGGAAT | 1.01 ± 0.049
96 | AGTGGGGACG | 1.031 ± 0.01
97 | AGTGGGGATC | 1.03 ± 0.035
98 | AGTGGGGGAT | 0.988 ± 0.028
99 | AGTGGGGGTC | 1.02 ± 0.021
100 | AGTGGGTAGA | 1.04 ± 0.049
101 | AGTGGGTTAG | 1.016 ± 0.0012
102 | AGTGGTACTA | 0.991 ± 0.038
103 | AGTGGTGGAG | 1 ± 0.04
104 | AGTGGTGGTA | 0.998 ± 0.018
105 | AGTGGTTATT | 0.989 ± 0.032
106 | AGTGTAATGT | 0.975 ± 0.059
107 | AGTGTATCCC | 1.01 ± 0.034
108 | AGTGTCGTGC | 1 ± 0.025
109 | AGTGTCGTTT | 0.991 ± 0.02
110 | AGTGTCTTTG | 0.954 ± 0.011
111 | AGTGTGGGCG | 1.04 ± 0.02
112 | AGTGTGGGGG | 1.01 ± 0.029
113 | AGTGTGGTGC | 0.9778 ± 0.0073
114 | AGTGTTACG | 1.01 ± 0.04
115 | AGTGTTATTT | 0.993 ± 0.011

Row | Sequence | switch fluorescence ratio
116 | AGTGTTCGCT | 0.9732 ± 0.0052
117 | AGTGTTCTCG | 0.983 ± 0.017
118 | AGTGTTGATG | 0.975 ± 0.051
119 | AGTGTTGCGG | 0.952 ± 0.021
120 | AGTGTTGGCC | 1.023 ± 0.0089
121 | AGTGTTGGG | 0.9768 ± 0.0046
122 | AGTGTTGTCA | 0.97 ± 0.043
123 | AGTGTTGTGC | 1.01 ± 0.033
124 | AGTGTTGTTG | 0.9727 ± 0.0095
125 | AGTGTTTAAA | 0.969 ± 0.025
126 | AGTGTTTCAG | 0.956 ± 0.018
127 | AGTGTTTGCC | 1.036 ± 0.0035
128 | AGTGTTTGGC | 1.01 ± 0.022
129 | AGTGTTTTAA | 0.994 ± 0.033
130 | AGTTAAAGTG | 1.03 ± 0.057
131 | AGTTAATGCT | 0.9856 ± 0.0026
132 | AGTTAGACTT | 1.02 ± 0.064
133 | AGTTAGAGTG | 0.976 ± 0.016
134 | AGTTAGGAAG | 0.973 ± 0.011
135 | AGTTAGGGGC | 0.995 ± 0.053
136 | AGTTATCGAA | 1.009 ± 0.0036
137 | AGTTATTAAT | 1.06 ± 0.054
138 | AGTTATTGAG | 0.9991 ± 0.0043

Row | Sequence | switch fluorescence ratio
139 | AGTTATTGCC | 1.01 ± 0.029
140 | AGTTATTTTT | 0.991 ± 0.011
141 | AGTTCCGTTG | 1.028 ± 0.0097
142 | AGTTCGGCGT | 0.999 ± 0.029
143 | AGTTCGGTGC | 0.9799 ± 0.0012
144 | AGTTCGTTA | 0.9861 ± 0.0056
145 | AGTTGAAGGG | 0.973 ± 0.018
146 | AGTTGAATTG | 0.994 ± 0.022
147 | AGTTGAGATG | 0.971 ± 0.033
148 | AGTTGAGGAA | 1 ± 0.026
149 | AGTTGATGGG | 0.978 ± 0.049
150 | AGTTGCCCGG | 1.006 ± 0.0068
151 | AGTTGCGTCG | 0.997 ± 0.031
152 | AGTTGCTGCT | 0.995 ± 0.02
153 | AGTTGCTTGG | 1.01 ± 0.041
154 | AGTTGGAATT | 0.979 ± 0.012
155 | AGTTGGACAG | 1.02 ± 0.012
156 | AGTTGGAGGC | 0.9476 ± 0.0088
157 | AGTTGGATC | 1.02 ± 0.015
